Reference: patent US20230140976A1 (OREGON HEALTH AND SCIENCE UNIVERSITY, published 2023)
Each block holds one binder with its values, some of them ahead of it.

Experiments:
[1] = biological target: T1, dog dystroglycan (DG) (MDCK cells) (dog, UniProt Q9TSZ6 28-892); assay: not described; MDCK cells
T1 construct: whole, on cells; also called dog DG
T1 sequence (looked up): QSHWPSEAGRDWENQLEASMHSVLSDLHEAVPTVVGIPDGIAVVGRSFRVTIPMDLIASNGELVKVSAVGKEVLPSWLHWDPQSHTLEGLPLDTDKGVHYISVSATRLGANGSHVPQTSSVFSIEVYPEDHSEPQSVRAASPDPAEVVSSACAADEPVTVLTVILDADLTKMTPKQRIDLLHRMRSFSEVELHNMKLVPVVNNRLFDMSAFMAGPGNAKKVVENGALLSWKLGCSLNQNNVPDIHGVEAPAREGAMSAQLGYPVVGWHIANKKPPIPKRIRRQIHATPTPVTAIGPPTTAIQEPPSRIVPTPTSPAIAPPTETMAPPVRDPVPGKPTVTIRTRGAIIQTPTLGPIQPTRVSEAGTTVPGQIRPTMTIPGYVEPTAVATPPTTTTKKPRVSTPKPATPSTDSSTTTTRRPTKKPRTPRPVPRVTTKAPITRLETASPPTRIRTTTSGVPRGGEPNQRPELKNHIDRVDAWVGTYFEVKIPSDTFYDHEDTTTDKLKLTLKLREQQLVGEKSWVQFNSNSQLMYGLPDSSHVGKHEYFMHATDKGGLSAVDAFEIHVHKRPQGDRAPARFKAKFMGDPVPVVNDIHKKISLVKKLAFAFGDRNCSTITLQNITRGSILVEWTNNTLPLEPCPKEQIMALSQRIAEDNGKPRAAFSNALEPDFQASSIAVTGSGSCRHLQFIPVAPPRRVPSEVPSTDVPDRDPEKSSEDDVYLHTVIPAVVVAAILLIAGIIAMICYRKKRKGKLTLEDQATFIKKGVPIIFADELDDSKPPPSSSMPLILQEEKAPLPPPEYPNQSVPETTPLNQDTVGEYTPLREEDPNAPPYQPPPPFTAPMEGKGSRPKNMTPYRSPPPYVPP

[2] = biological target: T2, human dystroglycan (DG) heterodimer of α-DG and β-DG (human, UniProt Q14118 30-653; Q14118 654-895, variable O- and N-glycosylation of α-DG (sites listed in paragraph 55)); assay: live-cell immunofluorescence on UMUC3, UMUC5, UMUC9 and UMUC10
T2 construct: In the immunoprecipitations it came from lysates of surface-biotinylated cells; also called DAG1; Dystrophin-Associated Glycoprotein 1
T2 sequence 1: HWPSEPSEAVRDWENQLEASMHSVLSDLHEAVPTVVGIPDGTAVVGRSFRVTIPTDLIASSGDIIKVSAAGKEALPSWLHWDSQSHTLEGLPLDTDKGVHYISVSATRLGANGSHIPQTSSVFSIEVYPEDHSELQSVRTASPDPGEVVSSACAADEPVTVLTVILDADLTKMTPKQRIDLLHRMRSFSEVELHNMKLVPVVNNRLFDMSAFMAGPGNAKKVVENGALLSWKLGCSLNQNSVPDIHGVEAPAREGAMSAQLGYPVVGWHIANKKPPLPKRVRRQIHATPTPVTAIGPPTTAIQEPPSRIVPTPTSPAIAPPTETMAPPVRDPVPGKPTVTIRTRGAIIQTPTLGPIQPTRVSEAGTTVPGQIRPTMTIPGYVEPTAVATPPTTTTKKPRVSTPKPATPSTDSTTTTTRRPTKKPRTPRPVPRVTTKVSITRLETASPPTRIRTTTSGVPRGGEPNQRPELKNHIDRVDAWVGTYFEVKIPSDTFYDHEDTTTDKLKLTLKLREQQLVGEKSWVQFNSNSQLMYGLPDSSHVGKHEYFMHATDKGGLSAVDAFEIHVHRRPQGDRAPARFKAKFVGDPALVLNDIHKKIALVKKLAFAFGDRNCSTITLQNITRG
T2 sequence 2: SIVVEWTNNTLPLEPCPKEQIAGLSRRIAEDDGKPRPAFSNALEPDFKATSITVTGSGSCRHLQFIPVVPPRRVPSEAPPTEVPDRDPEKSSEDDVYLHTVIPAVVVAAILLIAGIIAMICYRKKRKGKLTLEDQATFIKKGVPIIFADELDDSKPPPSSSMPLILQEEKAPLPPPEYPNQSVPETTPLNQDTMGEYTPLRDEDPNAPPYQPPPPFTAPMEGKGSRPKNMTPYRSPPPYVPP

[3] = biological target: T2, human dystroglycan (DG) heterodimer of …; assay: live-cell immunofluorescence on co-cultured MEpG cells with and without human DG (FIG. 3)
Protocol: Example 2. Screening for antibodies of interest by live cell binding and internalization. Antibody activity was measured as binding to the surface of living cells expressing the human DG protein (“positive” cells) but not to negative controls (cells derived from an engineered conditional DG knockout mouse lacking human DG expression). The positive population was the same cell line used for immunization, MEpG cells expressing the human DG protein. The negative population was the murine MEpG line expressing green fluorescent protein (GFP) and not the human DG protein, created as previously described in Oppizzi et al., Traffic, 9(12): 2063-2072, 2008. The positive and negative populations were co-cultured in wells of Ibidi 96-well micro-plates (Ibidi, catalog #89626) and distinguishable by GFP expression. Hybridoma supernatants to be tested were diluted 1:1 with plain DMEM:F12 cell culture medium (Gibco) and added to cell-containing wells of the 96-well Ibidi plates. Each well was incubated for 60 minutes at 37° C. with the hybridoma supernatants to be tested, washed with DMEM:F12 medium, and incubated 30 minutes at 37° C. with an anti-mouse secondary antibody conjugated to the Alexa-568 fluorescent dye (Jackson Immunochemicals) diluted 1:1000 in DMEM:F12 medium. […]

binding result [1]: no binding | binding result [2]: binds
B1: monoclonal antibody from hybridoma DG4H4 (ATCC Patent Deposit No. PTA-126594) (antibody, V domains shown)
VH: QVTLKESGPGILKPSQTLSLTCSFSGFSLSTSGMGVGWIRQPSGKGLEWLAHIWWDDDKYYNPSLKSQLTISKDTSRNQVFLKITSVDTADTATYYCARRAYYYGSSYPMDYWGQGTSVTVSS
VL: DIVLTQSPTSLAVSLGQRATFSCKASQSVDYDGDSYMNWYQQKPGQPPKLLIYAASNLDSGIPARFSGSGSGTDFTLNIHPVEEEDAATYYCQQSNEDPLTFGAGTKLELKR
notes: Mouse monoclonal antibody (Balb/c hybridoma); also called lane F

binding result [1]: no binding | binding result [3]: binds
B2: monoclonal antibody from hybridoma DG1A11 (ATCC Patent Deposit No. PTA-126595) (antibody, V domains shown)
VH: DVQLQESGPGLVKPSQSLSLTCTVTDYAITSDYAWNWIRQFPGNKLEWMGYISYSGSTSYSSSLKSRISITRDTSKNQFFLQLNSVTPEDTATYYCARAAPFTTLTDFFDYWGQGTTLTVSS
VL: DIVMTQSHKFMSTSVGDRVTITCKASQDVTTAVAWYQQKPGQSPKLLIYWASSRHTGVPDRFTGSGSGTDYTLTISSVQAEDLALYYCQQHYSTPYTFGGGTKLEIKR
notes: Mouse monoclonal antibody (Balb/c hybridoma); Tested as hybridoma supernatant or purified antibody; also called Antibody A; lane A
